Experimental findings from patent US20210395725A1 (EVERCYTE, published 2021) are described below.

Test [1] deals with T1, mouse EGFR-Fc (mouse, UniProt Q01279 25-647, limits assumed, biotinylated with EZ-Link Sulfo-NHS-LC-LC-Biotin).
T1 construct: Bought; also called Mouse EGFR-Fc-biotin; biotinylated mouse EGFR-Fc
In words: HEK293-6E cell display flow cytometry; 500 nM biotinylated antigen + streptavidin-Alexa Fluor 647; secondary only 2.67. Background: A flow cytometer gives signals particle by particle.
Protocol: (§1) 1×10⁵ cells have been blocked in 2% BSA-PBS for 30 min on ice and then stained with each 500 nM biotinylated human EGFR-Fc, biotinylated human Her2/neu-Fc and biotinylated mouse EGFR-Fc for 30 min on ice in 2% BSA-PBS. […] Cells were then centrifuged at 300 g, 5 min at 4° C. and re-suspended in 200 μl ice-cold PBS. […] The fluorescence has been determined with Guava EasyCyte flow cytometer.

Test [2] addresses T2, human Her2/neu-Fc (human, UniProt P04626 23-652, biotinylated with EZ-Link Sulfo-NHS-LC-LC-Biotin).
T2 construct: Bought; also called Human Her2/neu-Fc-biotin; biotinylated human Her2/neu-Fc
The test is described as above.
Protocol: as §1

For test [3], the target named is T3, human EGFR-Fc (human, UniProt P00533 25-645, biotinylated with EZ-Link Sulfo-NHS-LC-LC-Biotin in most assays).
T3 construct: Bought; also called Human EGFR-Fc-biotin; EGFR-Fc-biotin
Described as above.
Protocol: as §1

Test [4] deals with T1, mouse EGFR-Fc. In words: flow cytometry, HEK293-6E cell display (pDisplay).
Protocol: (§2) 1×10⁵ cells have been blocked in 2% BSA-PBS for 30 min on ice and then stained with each 500 nM biotinylated human EGFR-Fc, biotinylated human Her2/neu-Fc and biotinylated mouse EGFR-Fc for 30 min on ice in 2% BSA-PBS. […] Cells were then centrifuged at 300 g, 5 min at 4° C. and resuspended in 200 μl ice-cold PBS. […] The fluorescence has been determined with Guava EasyCyte flow cytometer.
as §1
In test [5] the target is T3, human EGFR-Fc. In words: flow cytometry, HEK293-6E cell display (pDisplay).
Protocol: as §2, §1
Test [6] addresses T1, mouse EGFR-Fc. Put plainly: HEK293-6E cell display flow cytometry; 500 nM biotinylated antigen + streptavidin-Alexa Fluor 647; secondary only 5.82.
Protocol: as §2
For test [7], the target named is T2, human Her2/neu-Fc. The description is as above.
Protocol: as §2
Test [8] deals with T3, human EGFR-Fc. Described as above.
Protocol: as §2
The target of test [9] is T2, human Her2/neu-Fc. In words: flow cytometry, HEK293-6E cell display (pDisplay).
Protocol: as §2, §1
Test [10] has as its target T1, mouse EGFR-Fc. Put plainly: yeast display flow cytometry; mouse EGFR-Fc + streptavidin-Alexafluor 647.
For test [11], the target named is T1, mouse EGFR-Fc. In words: HEK293-6E cell display flow cytometry; 500 nM biotinylated antigen + streptavidin-Alexa Fluor 647; secondary only 14.11.
Protocol: as §1
Test [12] has as its target T2, human Her2/neu-Fc. The test is described as above.
Protocol: as §1
For test [13], the target named is T3, human EGFR-Fc. Described as above.
Protocol: as §1
For test [14], the target named is T1, mouse EGFR-Fc. In words: HEK293-6E cell display flow cytometry; 500 nM biotinylated antigen + streptavidin-Alexa Fluor 647; secondary only 14.11 (same values as in Table 12).
Protocol: as §1
Test [15] has as its target T2, human Her2/neu-Fc. Described as above.
Protocol: as §1
Test [16] deals with T3, human EGFR-Fc. The test is described as above.
Protocol: as §1
For the next test, the target named is T4, human placental laminin (human).
T4 construct: Bought; also called human laminin; laminin-biotin
Put plainly: ELISA; biotinylated laminin 5 µg/ml on streptavidin plate, neat eluted His-tagged protein, anti-pentaHis-HRP. On the technique in general: ELISA stands for enzyme-linked immunosorbent assay.

Test [17] concerns the target T5, streptavidin-Alexafluor 647 (UniProt P22629 37-163, limits assumed, Alexa Fluor 647 conjugate).
T5 construct: Secondary detection reagent, tested alone as a control; also called secondary reagent; 2nd
In words: yeast display flow cytometry, secondary reagent only.

For test [18], the target named is T1, mouse EGFR-Fc. Put plainly: yeast display flow cytometry, clone 9.
The target in test [19] is T5, streptavidin-Alexafluor 647. Put plainly: yeast display flow cytometry; secondary reagent only.

Positions count from the first letter of the chain named.

T5 sequence (P22629 37-163 limits assumed): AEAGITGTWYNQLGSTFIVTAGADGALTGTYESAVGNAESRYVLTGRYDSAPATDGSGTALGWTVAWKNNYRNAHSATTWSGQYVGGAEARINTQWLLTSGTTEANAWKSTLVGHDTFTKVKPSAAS
Protocol for human placental laminin: Neat eluted proteins were tested for binding to their cognate antigen and BSA as a control antigen. Streptavidin-activated plates (Immobilizer, NUNC) were coated with biotinylated laminin at 5 μg/ml in PBS for 30 min at RT and blocked with 4% BSA-PBS for 1 h at RT. Eluted proteins were added in 2% BSA-PBS and allowed to bind for 1 h at RT. […] The reaction was stopped with the addition of H₂SO₄ and the absorbance read at 450/620 nm (Table 15).

B1: anti-Her2/neu directed CD81 LEL clone 81_H2_11 (designed binder)
chain: FVNKDQIAKDVKQFYDQALVNCCYTRAANNACAVVKTFHETLDCCGSSTHYVDTHCVLNRNLCPSGSNIISNLFKEDCHQKIDDLFSGK
notes: also called anti-Her2/neu clone
For the molecule B1, the “% antigen binding cells” value with mouse EGFR-Fc [1] worked out at 5.68%; in the test with human Her2/neu-Fc [2] it was 44.2%; in the test with human EGFR-Fc [3], 5.16%. The binding result with mouse EGFR-Fc [4] and in the test with human EGFR-Fc [5] was “no binding (tested: 500 nM)” throughout.

B2: EGFR-specific CD81 LEL binder L2B_EU1_1 (designed binder)
chain: FVNKDQIAKDVKQFYDQALWWCCVLYKANNACAVVKTFHETLDCCGSSTGRSHTACVLKGNLCPSGSNIISNLFKEDCHQKIDDLFSGK
notes: also called L2BE1_1
For B2, the “% antigen binding cells” value with mouse EGFR-Fc [6] was found to be 89.3%; with human Her2/neu-Fc [7], 8.17%; with human EGFR-Fc [8], 71.1%. Besides, in the test with human Her2/neu-Fc [9], the binding result is on record as “no binding (tested: 500 nM)”.

B3: wild-type human CD81 LEL (other)
chain: FVNKDQIAKDVKQFYDQALQQAVVDDDANNAKAVVKTFHETLDCCGSSTLTALTTSVLKNNLCPSGSNIISNLFKEDCHQKIDDLFSGK
notes: the formats are named in the assay field; The soluble form runs as a dimer in SEC; also called wild-type CD81 LEL; hCD81 LEL
With B3, the median fluorescence with mouse EGFR-Fc [10] came out at 9.1. For the same molecule, the “% antigen binding cells” value with mouse EGFR-Fc [11] was 12.8%; in the test with human Her2/neu-Fc [12], 10.5%; in the test with human EGFR-Fc [13], 10.4%; with mouse EGFR-Fc [14], 12.8%; with human Her2/neu-Fc [15] it was 10.5%; in the test with human EGFR-Fc [16] it was 10.4%.

B4: laminin-binding CD81 LEL mutant L2A_LU1 (designed binder)
chain: FVNKDQIAKDVKQFYDQALRECCNTFDANNACAVVKTFHETLDCCGSSTTHSSTGCVLFFNLCPSGSNIISNLFKEDCHQKIDDLFSGK
As to B4, the “A450/620 (average)” value with human placental laminin came to 0.156.

B5: laminin-binding CD81 LEL mutant L3A_LU1 (designed binder)
chain: FVNKDQIAKDVKQFYDQCLLWACSKRYKYNAKACVKTFHETLDCCGSSTMGNLTECVLIENLCPSGSNIISNLFKEDCHQKIDDLFSGK
For the molecule B5, in the test with human placental laminin, the “A450/620 (average)” value came out at 1.7.

B6: CD81 LEL library 1 variant RAN / IWRARRRRS (yeast clones 3, 13, 21 of the mouse EGFR-Fc selection) (designed binder)
chain: FVNKDQIAKDVKQFYDQALQQAVVDDDANNAKAVVKTFHETLDCCGSRANTALTTSVLKNNLCPSGSNIWRARRRRSCHQKIDDLFSGK
notes: also called clone 3; clone 13
In the case of B6, in [17], the binding result was “no binding”.

B7: CD81 LEL library 1 variant VRR / RRPRKRTRS (yeast clones 1, 8, 15 of the mouse EGFR-Fc selection) (designed binder)
chain: B6 chain with R48V, A49R, N50R, I69R, W70R, R71P, A72R, R73K, R75T
notes: also called clone 1; clone 8
For B7, the binding result in test [17] was “no binding”.

B8: CD81 LEL library 1 variant SSS / SRRWRHRIA (yeast clones 6, 18 of the mouse EGFR-Fc selection) (designed binder)
chain: B6 chain with R48S, A49S, N50S, I69S, W70R, A72W, R74H, R76I, S77A
notes: also called clone 6; clone 18
Take B8: the binding result in [17] is given as “no binding”.

B9: CD81 LEL library 1 variant ERL / RRSRRRVHD (yeast clones 2, 4, 7, 10, 11, 12, 14, 16, 17, 20, 22, 23 of the mouse EGFR-Fc selection) (designed binder)
chain: B3 chain with S48E, T49R, I69R, I70R, N72R, L73R, F74R, K75V, E76H
notes: also called clone 2; clone 4
As for B9, the binding result in [17] is given as “no binding”.

B10: CD81 LEL library 1 variant SFS / RRFRKRPGD (yeast clones 5, 19 of the mouse EGFR-Fc selection) (designed binder)
chain: B3 chain with T49F, L50S, I69R, I70R, S71F, N72R, L73K, F74R, K75P, E76G
notes: also called clone 5; clone 19
B10: the binding result in test [17] was “no binding”.

B11: CD81 LEL library 1 variant MGN / WWGRRFRVS (yeast clone 9 of the mouse EGFR-Fc selection) (designed binder)
chain: B6 chain with R48M, A49G, I69W, R71G, A72R, R74F, R76V
B11: the median fluorescence with mouse EGFR-Fc [10] was 11.8; in test [19], 14.6. Further, the binding result with mouse EGFR-Fc [18] is “no binding”.

B12: laminin-binding CD81 LEL mutant L3B_LU1_2 (designed binder)
chain: FVNKDQIAKDVKQFYDQCLKYACKQGDWENAKACVKTFHETLDCCGSSTVANMTRCVLPANLCPSGSNIISNLFKEDCHQKIDDLFSGK
As to B12, the “A450/620 (average)” value with human placental laminin is 1.32.
